Results: publication PMC10638201, “Application of electrospun chitosan-based nanofibers as immobilization matrix for biomolecules” (Applied Microbiology and Biotechnology, 2023)

Substrate: COc1cc(CO)ccc1O
Assay: purified protein
Assay type: biochemical, Rhodococcus jostii
Settings: free EUGO, O2 as co-substrate (air), ambient conditions, 50 mM Glycine·NaOH buffer, pH 8.0, N = 1, called preliminary

B1: eugenol oxidase (EUGO); 6xHis-eugenol-oxidase-StrepTag-II (Rhodococcus jostii RHA1) (protein)
chain: MTRTLPPGVSDERFDAALQRFRDVVGDKWVLSTADELEAFRDPYPVGAAEANLPSAVVSPESTEQVQDIVRIANEYGIPLSPVSTGKNNGYGGAAPRLSGSVIVKTGERMNRILEVNEKYGYALLEPGVTYFDLYEYLQSHDSGLMLDCPDLGWGSVVGNTLDRGVGYTPYGDHFMWQTGLEVVLPQGEVMRTGMGALPGSDAWQLFPYGFGPFPDGMFTQSNLGIVTKMGIALMQRPPASQSFLITFDKEEDLEQIVDIMLPLRINMAPLQNVPVLRNIFMDAAAVSKRTEWFDGDGPMPAEAIERMKKDLDLGFWNFYGTLYGPPPLIEMYYGMIKEAFGKIPGARFFTHEERDDRGGHVLQDRHKINNGIPSLDELQLLDWVPNGGHIGFSPVSAPDGREAMKQFEMVRNRANEYNKDYAAQFIIGLREMHHVCLFIYDTAIPEAREEILQMTKVLVREAAEAGYGEYRTHNALMDDVMATFNWGDGALLKFHEKIKDALDPNGIIAPGKSGIWSQRFRGQNL
notes: N-terminal His6 tag and C-terminal Strep-tag II, tags kept; gene from vector pEUGOA cloned into pET-28a(+) (pET-28-eugo-STII); E. coli BL21 (DE3) gold; Ni Sepharose purified; dimer, theoretical 124 kDa
With B1 the Km was 80 ± 20 µM and the kcat was 5 ± 1 s⁻¹.
